Values joined by “and” are separate entries in the source; they are usually repeats but may differ in a detail not shown here. Equal entries are not always repeated.
Tests used:
[1] = biological target: the molecule itself; experiment: crystal structure
[2] = biological target: T1, S. cerevisiae RNA guanylyltransferase Ceg1 (1–459), full length (S. cerevisiae, UniProt Q01159 1-459); experiment: SEC
T1 sequence (looked up): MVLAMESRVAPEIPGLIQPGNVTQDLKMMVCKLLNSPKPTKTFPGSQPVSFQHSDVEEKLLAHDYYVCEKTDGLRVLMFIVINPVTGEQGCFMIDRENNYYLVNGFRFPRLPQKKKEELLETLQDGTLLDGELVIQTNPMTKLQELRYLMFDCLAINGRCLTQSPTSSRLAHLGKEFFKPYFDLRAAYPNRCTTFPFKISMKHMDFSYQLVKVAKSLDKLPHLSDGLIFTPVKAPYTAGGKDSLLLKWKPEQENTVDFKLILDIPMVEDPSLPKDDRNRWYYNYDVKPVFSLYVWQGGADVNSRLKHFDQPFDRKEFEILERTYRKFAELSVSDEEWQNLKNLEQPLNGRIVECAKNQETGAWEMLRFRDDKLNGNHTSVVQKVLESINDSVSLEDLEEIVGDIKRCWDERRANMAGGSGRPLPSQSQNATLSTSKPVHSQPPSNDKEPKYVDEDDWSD

B1: S. cerevisiae RNA triphosphatase Cet1 (241–549) (domain or fragment, UniProt O13297 241-549, looked up)
chain: YRNVPIWAQKWKPTIKALQSINVKDLKIDPSFLNIIPDDDLTKSVQDWVYATIYSIAPELRSFIELEMKFGVIIDAKGPDRVNPPVSSQCVFTELDAHLTPNIDASLFKELSKYIRGISEVTENTGKFSIIESQTRDSVYRVGLSTQRPRFLRMSTDIKTGRVGQFIEKRHVAQLLLYSPKDSYDVKISLNLELPVPDNDPPEKYKSQSPISERTKDRVSYIHNDSCTRIDITKVENHNQNSKSRQSETTHEVELEINTPALLNAFDNITNDSKEYASLIRTFLNNGTIIRRKLSSLSYEIFEGSKKVM
stoichiometry N [1]: 2 protomers
stoichiometry N [2]: 2 Cet1 protomers per Ceg1 (2:1) and 1 Cet1 protomers per Ceg1 (2:2)
